Experimental data as given in patent EP4717706A1.
Substitutions are numbered along the chain they refer to. Names and notes keep the numbering of the source.

B1: AVR24b (AVR21 with K338R, T426A, A461P) (receptor)
chain: MGSAGESDQITLPKHEAQLNVYVLLVPPRGEASTYDWQLITHPRDYSGEMEGEHSQILKLSNLTPGLYEYRAVVEGQNAHSEGYVNVTVEPEPRKNRPPIAIVSPQFQEISLPTTSAVIDGSQSTDDDKIVQYHWEELKGPLREEKISEDTPILKLSQLVPGNYTFRLTVVDTDGATDSTTADLTVNKAVDHHHHHH
B2: AVR26 (AVR21 with N329K, K338R, E401G, T426A, A461P) (receptor)
chain: B1 chain with N20K, E92G
B3: AVR25b (AVR21 with K338R, E401G, T426A, A461P) (receptor)
chain: B1 chain with E92G
B4: AVR24a (AVR21 with N329K, E401G, T426A) (receptor)
chain: B1 chain with N20K, R29K, E92G, P152A
B5: AVR21 with I319N, Y377F (receptor)
chain: B1 chain with I10N, R29K, Y68F, A117T, P152A
B6: AVR21 with K(N)371S, E453D, S466T (receptor)
chain: B1 chain with R29K, N62S, A117T, E144D, P152A, S157T
B7: AVR21 with E384D, V396E (receptor)
chain: B1 chain with R29K, E75D, V87E, A117T, P152A
B8: AVR21 with L367P (receptor)
chain: B1 chain with R29K, L58P, A117T, P152A
B9: AVR21 with D500N (receptor)
chain: B1 chain with R29K, A117T, P152A, D191N
B10: AVR21 with L367P, V412A (receptor)
chain: B1 chain with R29K, L58P, V103A, A117T, P152A
B11: AVR21 with T343A, K(N)371D (receptor)
chain: B1 chain with R29K, T34A, N62D, A117T, P152A
B12: AVR21 with Q365R, V(A)381T, K497E (receptor)
chain: B1 chain with R29K, Q56R, A72T, A117T, P152A, K188E
B13: AVR21 with L328P, V394A (receptor)
chain: B1 chain with L19P, R29K, V85A, A117T, P152A
B14: AVR21 with Q347K, N472K (receptor)
chain: B1 chain with R29K, Q38K, A117T, P152A, N163K
B15: AVR21 with L376P (receptor)
chain: B1 chain with R29K, L67P, A117T, P152A
B16: AVR21 with E(V)335A (receptor)
chain: B1 chain with V26A, R29K, A117T, P152A
B17: AVR21 with E340G (receptor)
chain: B1 chain with R29K, E31G, A117T, P152A
B18: AVR21 with I366F, D435A (receptor)
chain: B1 chain with R29K, I57F, A117T, D126A, P152A
B19: AVR21 with E378G (receptor)
chain: B1 chain with R29K, E69G, A117T, P152A
B20: AVR21 with V412A (receptor)
chain: B1 chain with R29K, V103A, A117T, P152A
B21: AVR21 with F(Y)379S (receptor)
chain: B1 chain with R29K, Y70S, A117T, P152A
B22: AVR21 with V332A (receptor)
chain: B1 chain with V23A, R29K, A117T, P152A
B23: AVR21 with N329S, K368R, V412A (receptor)
chain: B1 chain with N20S, R29K, K59R, V103A, A117T, P152A
B24: AVR21 with T397A (receptor)
chain: B1 chain with R29K, T88A, A117T, P152A
B25: AVR21 with T397S (receptor)
chain: B1 chain with R29K, T88S, A117T, P152A
B26: AVR21 with E360D, H389R (receptor)
chain: B1 chain with R29K, E51D, H80R, A117T, P152A
B27: AVR21 with L376P, P402S (receptor)
chain: B1 chain with R29K, L67P, P93S, A117T, P152A
B28: AVR21 with L321Q, T343S (receptor)
chain: B1 chain with L12Q, R29K, T34S, A117T, P152A
B29: AVR21 with E(V)335A, V394I (receptor)
chain: B1 chain with V26A, R29K, V85I, A117T, P152A
B30: AVR21 with L321Q (receptor)
chain: B1 chain with L12Q, R29K, A117T, P152A
B31: AVR21 with Y344F, T350A, Y377N (receptor)
chain: B1 chain with R29K, Y35F, T41A, Y68N, A117T, P152A
B32: AVR21 with T426A (receptor)
chain: B1 chain with R29K, P152A
B33: AVR21 with L369S (receptor)
chain: B1 chain with R29K, L60S, A117T, P152A
B34: AVR21 with I(V)382I (receptor)
chain: B1 chain with R29K, V73I, A117T, P152A
B35: AVR21 with K338R, A461P (receptor)
chain: B1 chain with A117T
B36: AVR21 with D345G, E454D (receptor)
chain: B1 chain with R29K, D36G, A117T, E145D, P152A
B37: AVR21 with N329K, E401G (receptor)
chain: B1 chain with N20K, R29K, E92G, A117T, P152A
B38: AVR25c with H363P, K497E (receptor)
chain: B1 chain with N20K, R29K, H54P, E92G, Q158N, K188E
B39: AVR25c with R406H, F416L (receptor)
chain: B1 chain with N20K, R29K, E92G, R97H, F107L, Q158N
B40: AVR25c with Q318R, E362D, E378G (receptor)
chain: B1 chain with Q9R, N20K, R29K, E53D, E69G, E92G, Q158N
B41: AVR25c with E378G, V398A (receptor)
chain: B1 chain with N20K, R29K, E69G, V89A, E92G, Q158N
B42: AVR25c with T434S (receptor)
chain: B1 chain with N20K, R29K, E92G, T125S, Q158N
B43: AVR25c with V(D)317G, T478I (receptor)
chain: B1 chain with D8G, N20K, R29K, E92G, Q158N, T169I
B44: AVR25c with G314D, E399K, E445K (receptor)
chain: B1 chain with G5D, N20K, R29K, E90K, E92G, E136K, Q158N
B45: AVR25c with Q415R, S457R (receptor)
chain: B1 chain with N20K, R29K, E92G, Q106R, S148R, Q158N
B46: AVR25c_T474R (AVR25c with T474R) (receptor)
chain: B1 chain with N20K, R29K, E92G, Q158N, T165R
B47: AVR25c with F(Y)379N (receptor)
chain: B1 chain with N20K, R29K, Y70N, E92G, Q158N
B48: AVR25c with P322A, T350A, L421P (receptor)
chain: B1 chain with P13A, N20K, R29K, T41A, E92G, L112P, Q158N
B49: AVR25c with E325V, D437V (receptor)
chain: B1 chain with E16V, N20K, R29K, E92G, D128V, Q158N
B50: AVR25c with Q347R, T486A, D500G (receptor)
chain: B1 chain with N20K, R29K, Q38R, E92G, Q158N, T177A, D191G
B51: AVR25c with G314D, V499I (receptor)
chain: B1 chain with G5D, N20K, R29K, E92G, Q158N, V190I
B52: AVR25c with G392E, S433G, A485V, L493M, N496D (receptor)
chain: B1 chain with N20K, R29K, G83E, E92G, S124G, Q158N, A176V, L184M, N187D

target: VLP2 (virus-like particles, capsid protein particles of AAV serotype 2) (AAV serotype 2 (AAV2)) (UniProt P03135); assay: ELISA on immobilised VLP2 (purified protein); A450 after 1:1 0.5 M NaOH, 30°C, 60 min divided by A450 at 0 time
UniProt P03135, sequence (P03135 whole entry): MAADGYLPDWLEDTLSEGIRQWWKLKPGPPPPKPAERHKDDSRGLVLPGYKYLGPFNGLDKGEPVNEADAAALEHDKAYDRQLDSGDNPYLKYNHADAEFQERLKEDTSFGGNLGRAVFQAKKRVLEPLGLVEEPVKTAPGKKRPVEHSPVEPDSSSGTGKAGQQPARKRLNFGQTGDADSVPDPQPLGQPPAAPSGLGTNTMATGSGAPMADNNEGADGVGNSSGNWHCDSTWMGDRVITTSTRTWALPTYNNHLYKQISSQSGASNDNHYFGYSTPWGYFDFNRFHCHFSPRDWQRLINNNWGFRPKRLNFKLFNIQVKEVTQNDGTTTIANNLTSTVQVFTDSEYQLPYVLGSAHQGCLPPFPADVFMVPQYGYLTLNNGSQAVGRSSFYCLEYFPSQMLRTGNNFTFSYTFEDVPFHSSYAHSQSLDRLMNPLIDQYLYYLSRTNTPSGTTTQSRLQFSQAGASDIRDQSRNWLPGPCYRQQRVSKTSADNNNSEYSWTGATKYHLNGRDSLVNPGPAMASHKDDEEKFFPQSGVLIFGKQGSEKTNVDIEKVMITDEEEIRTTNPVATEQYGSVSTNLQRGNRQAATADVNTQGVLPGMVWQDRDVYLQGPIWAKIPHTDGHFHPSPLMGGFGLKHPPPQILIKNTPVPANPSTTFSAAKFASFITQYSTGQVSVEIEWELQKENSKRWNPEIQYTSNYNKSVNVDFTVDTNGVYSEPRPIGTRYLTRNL

In order of rising Remaining activity [%]:
1. B4  0.3%
2. B3  1.5%
3. B1  17.6%
4. B2  23.9%

target: VLP2 (virus-like particles, capsid protein particles of AAV serotype 2) (AAV serotype 2 (AAV2)) (UniProt P03135); assay: ELISA on immobilised VLP2 (purified protein); start of alkali treatment, the reference of the ratio

In order of rising Remaining activity [%]:
1. B1  100%
2. B2  100%
3. B3  100%
4. B4  100%

target: VLP2 (virus-like particles, capsid protein particles of AAV serotype 2) (AAV serotype 2 (AAV2)) (UniProt P03135); assay: ELISA on immobilised VLP2 (purified protein); A450 after 1:1 0.5 M NaOH, 30°C, 30 min divided by A450 at 0 time

In order of rising Remaining activity [%]:
1. B4  37.6%
2. B1  89.1%
3. B2  100%
4. B3  100%

target: VLP2 (virus-like particles, capsid protein particles of AAV serotype 2) (AAV serotype 2 (AAV2)) (UniProt P03135); assay: ELISA on immobilised VLP2 (culture supernatant, anti-His detection); A450 after 1:1 0.5 M NaOH, 30 min, 30°C divided by A450 untreated

In order of rising Remaining activity [%]:
1. B17  28.1%
2. B20  32.5%
3. B34  32.8%
4. B30  34.2%
5. B31  34.4%
6. B27  35.1%
7. B8  35.7%
8. B10  35.8%
9. B16  35.8%
10. B35  36.4%
11. B23  37.1%
12. B29  37.3%
13. B18  38.4%
14. B25  38.4%
15. B9  39.3%
16. B24  40.4%
17. B11  40.5%
18. B13  40.5%
19. B12  42%
20. B15  42.6%
21. B37  43.1%
22. B32  43.5%
23. B5  45.1%
24. B7  45.3%
25. B26  46.7%
26. B28  50.4%
27. B33  51.4%
28. B21  54.9%
29. B6  57.3%
30. B22  57.6%
31. B19  58%
32. B14  58.9%
33. B36  61.7%

target: VLP2 (virus-like particles, capsid protein particles of AAV serotype 2) (AAV serotype 2 (AAV2)) (UniProt P03135); assay: ELISA on immobilised VLP2 (culture supernatant); A450 after 1:1 1 M NaOH, 15 min, 30°C divided by A450 untreated

In order of rising Remaining activity [%]:
1. B39  41.9%
2. B48  49.6%
3. B45  55.1%
4. B47  55.1%
5. B52  61%
6. B44  62.5%
7. B40  66.1%
8. B41  67.5%
9. B38  69.6%
10. B50  72.8%
11. B49  76.7%
12. B42  77.3%
13. B51  79.1%
14. B43  82%
15. B46  100%
